{
  "source": "the Human Domainome abundance scans (Beltran et al. 2025)",
  "note": "± gives the uncertainty stated by the source.",
  "data": [
    {"test": "abundance fitness (aPCA) (normalised: wild type 0, dead -1); higher = more abundant; growth selection in yeast, the domain comes from the species named", "settings": "Homo sapiens", "values": [
      {"substance": "DnaJ homolog subfamily B member 1 A49W, P25685", "abundance fitness": "-0.307 ± 0.088"},
      {"substance": "DnaJ homolog subfamily B member 1 A49Y, P25685", "abundance fitness": "-0.277 ± 0.18"},
      {"substance": "DnaJ homolog subfamily B member 1 A51C, P25685", "abundance fitness": "-0.755 ± 0.18"},
      {"substance": "DnaJ homolog subfamily B member 1 A51D, P25685", "abundance fitness": "-1.19 ± 0.16"},
      {"substance": "DnaJ homolog subfamily B member 1 A51E, P25685", "abundance fitness": "-0.718 ± 0.098"},
      {"substance": "DnaJ homolog subfamily B member 1 A51F, P25685", "abundance fitness": "-1.49 ± 0.19"},
      {"substance": "DnaJ homolog subfamily B member 1 A51G, P25685", "abundance fitness": "-0.628 ± 0.061"},
      {"substance": "DnaJ homolog subfamily B member 1 A51I, P25685", "abundance fitness": "-0.977 ± 0.17"},
      {"substance": "DnaJ homolog subfamily B member 1 A51K, P25685", "abundance fitness": "-0.885 ± 0.15"},
      {"substance": "DnaJ homolog subfamily B member 1 A51L, P25685", "abundance fitness": "-1.06 ± 0.082"},
      {"substance": "DnaJ homolog subfamily B member 1 A51M, P25685", "abundance fitness": "-1.1 ± 0.085"},
      {"substance": "DnaJ homolog subfamily B member 1 A51P, P25685", "abundance fitness": "-0.488 ± 0.098"},
      {"substance": "DnaJ homolog subfamily B member 1 A51Q, P25685", "abundance fitness": "-0.755 ± 0.086"},
      {"substance": "DnaJ homolog subfamily B member 1 A51R, P25685", "abundance fitness": "-0.84 ± 0.067"},
      {"substance": "DnaJ homolog subfamily B member 1 A51S, P25685", "abundance fitness": "-0.406 ± 0.08"},
      {"substance": "DnaJ homolog subfamily B member 1 A51T, P25685", "abundance fitness": "-0.815 ± 0.071"},
      {"substance": "DnaJ homolog subfamily B member 1 A51V, P25685", "abundance fitness": "-0.915 ± 0.065"},
      {"substance": "DnaJ homolog subfamily B member 1 A51W, P25685", "abundance fitness": "-1.08 ± 0.096"},
      {"substance": "DnaJ homolog subfamily B member 1 A51Y, P25685", "abundance fitness": "-0.576 ± 0.39"},
      {"substance": "DnaJ homolog subfamily B member 1 D4E, P25685", "abundance fitness": "-0.186 ± 0.19"},
      {"substance": "DnaJ homolog subfamily B member 1 D4F, P25685", "abundance fitness": "-0.608 ± 0.48"},
      {"substance": "DnaJ homolog subfamily B member 1 D4G, P25685", "abundance fitness": "-0.398 ± 0.17"},
      {"substance": "DnaJ homolog subfamily B member 1 D4H, P25685", "abundance fitness": "-0.236 ± 0.44"},
      {"substance": "DnaJ homolog subfamily B member 1 D4L, P25685", "abundance fitness": "-0.341 ± 0.23"},
      {"substance": "DnaJ homolog subfamily B member 1 D4M, P25685", "abundance fitness": "-0.196 ± 0.15"},
      {"substance": "DnaJ homolog subfamily B member 1 D4P, P25685", "abundance fitness": "-0.712 ± 0.16"},
      {"substance": "DnaJ homolog subfamily B member 1 D4R, P25685", "abundance fitness": "-0.151 ± 0.17"},
      {"substance": "DnaJ homolog subfamily B member 1 D4S, P25685", "abundance fitness": "-0.193 ± 0.19"},
      {"substance": "DnaJ homolog subfamily B member 1 D4T, P25685", "abundance fitness": "-0.207 ± 0.18"},
      {"substance": "DnaJ homolog subfamily B member 1 D4V, P25685", "abundance fitness": "-0.433 ± 0.13"},
      {"substance": "DnaJ homolog subfamily B member 1 D4Y, P25685", "abundance fitness": "-0.256 ± 0.19"},
      {"substance": "DnaJ homolog subfamily B member 1 D17A, P25685", "abundance fitness": "-0.072 ± 0.096"},
      {"substance": "DnaJ homolog subfamily B member 1 D17C, P25685", "abundance fitness": "0.031 ± 0.23"},
      {"substance": "DnaJ homolog subfamily B member 1 D17E, P25685", "abundance fitness": "-0.095 ± 0.1"},
      {"substance": "DnaJ homolog subfamily B member 1 D17F, P25685", "abundance fitness": "-0.183 ± 0.12"},
      {"substance": "DnaJ homolog subfamily B member 1 D17G, P25685", "abundance fitness": "-0.199 ± 0.087"},
      {"substance": "DnaJ homolog subfamily B member 1 D17H, P25685", "abundance fitness": "-0.182 ± 0.13"},
      {"substance": "DnaJ homolog subfamily B member 1 D17I, P25685", "abundance fitness": "-0.029 ± 0.076"},
      {"substance": "DnaJ homolog subfamily B member 1 D17K, P25685", "abundance fitness": "-0.287 ± 0.14"},
      {"substance": "DnaJ homolog subfamily B member 1 D17L, P25685", "abundance fitness": "0.038 ± 0.072"},
      {"substance": "DnaJ homolog subfamily B member 1 D17M, P25685", "abundance fitness": "-0.06 ± 0.089"},
      {"substance": "DnaJ homolog subfamily B member 1 D17N, P25685", "abundance fitness": "-0.104 ± 0.12"},
      {"substance": "DnaJ homolog subfamily B member 1 D17P, P25685", "abundance fitness": "-0.18 ± 0.071"},
      {"substance": "DnaJ homolog subfamily B member 1 D17R, P25685", "abundance fitness": "-0.211 ± 0.084"},
      {"substance": "DnaJ homolog subfamily B member 1 D17S, P25685", "abundance fitness": "-0.094 ± 0.073"},
      {"substance": "DnaJ homolog subfamily B member 1 D17T, P25685", "abundance fitness": "-0.161 ± 0.11"},
      {"substance": "DnaJ homolog subfamily B member 1 D17V, P25685", "abundance fitness": "-0.059 ± 0.053"},
      {"substance": "DnaJ homolog subfamily B member 1 D17W, P25685", "abundance fitness": "-0.142 ± 0.15"},
      {"substance": "DnaJ homolog subfamily B member 1 D17Y, P25685", "abundance fitness": "-0.09 ± 0.078"},
      {"substance": "DnaJ homolog subfamily B member 1 D34A, P25685", "abundance fitness": "0.058 ± 0.14"},
      {"substance": "DnaJ homolog subfamily B member 1 D34C, P25685", "abundance fitness": "0.009 ± 0.14"},
      {"substance": "DnaJ homolog subfamily B member 1 D34E, P25685", "abundance fitness": "0.188 ± 0.33"},
      {"substance": "DnaJ homolog subfamily B member 1 D34F, P25685", "abundance fitness": "-0.249 ± 0.1"},
      {"substance": "DnaJ homolog subfamily B member 1 D34G, P25685", "abundance fitness": "-0.012 ± 0.11"},
      {"substance": "DnaJ homolog subfamily B member 1 D34H, P25685", "abundance fitness": "-0.008 ± 0.11"},
      {"substance": "DnaJ homolog subfamily B member 1 D34I, P25685", "abundance fitness": "-0.233 ± 0.1"},
      {"substance": "DnaJ homolog subfamily B member 1 D34K, P25685", "abundance fitness": "-0.046 ± 0.074"},
      {"substance": "DnaJ homolog subfamily B member 1 D34L, P25685", "abundance fitness": "-0.042 ± 0.066"},
      {"substance": "DnaJ homolog subfamily B member 1 D34M, P25685", "abundance fitness": "-0.053 ± 0.1"},
      {"substance": "DnaJ homolog subfamily B member 1 D34N, P25685", "abundance fitness": "-0.039 ± 0.17"},
      {"substance": "DnaJ homolog subfamily B member 1 D34P, P25685", "abundance fitness": "-0.285 ± 0.094"},
      {"substance": "DnaJ homolog subfamily B member 1 D34Q, P25685", "abundance fitness": "0.054 ± 0.11"},
      {"substance": "DnaJ homolog subfamily B member 1 D34R, P25685", "abundance fitness": "-0.242 ± 0.089"},
      {"substance": "DnaJ homolog subfamily B member 1 D34S, P25685", "abundance fitness": "0.075 ± 0.061"},
      {"substance": "DnaJ homolog subfamily B member 1 D34V, P25685", "abundance fitness": "-0.022 ± 0.081"},
      {"substance": "DnaJ homolog subfamily B member 1 D34W, P25685", "abundance fitness": "-0.02 ± 0.15"},
      {"substance": "DnaJ homolog subfamily B member 1 D34Y, P25685", "abundance fitness": "-0.135 ± 0.081"},
      {"substance": "DnaJ homolog subfamily B member 1 D53A, P25685", "abundance fitness": "-0.036 ± 0.088"},
      {"substance": "DnaJ homolog subfamily B member 1 D53C, P25685", "abundance fitness": "-0.093 ± 0.37"},
      {"substance": "DnaJ homolog subfamily B member 1 D53E, P25685", "abundance fitness": "-0.398 ± 0.12"},
      {"substance": "DnaJ homolog subfamily B member 1 D53F, P25685", "abundance fitness": "-0.249 ± 0.19"},
      {"substance": "DnaJ homolog subfamily B member 1 D53G, P25685", "abundance fitness": "-0.098 ± 0.15"},
      {"substance": "DnaJ homolog subfamily B member 1 D53H, P25685", "abundance fitness": "-0.262 ± 0.1"},
      {"substance": "DnaJ homolog subfamily B member 1 D53I, P25685", "abundance fitness": "-0.224 ± 0.11"},
      {"substance": "DnaJ homolog subfamily B member 1 D53K, P25685", "abundance fitness": "-0.067 ± 0.11"},
      {"substance": "DnaJ homolog subfamily B member 1 D53L, P25685", "abundance fitness": "-0.058 ± 0.066"},
      {"substance": "DnaJ homolog subfamily B member 1 D53M, P25685", "abundance fitness": "-0.124 ± 0.09"},
      {"substance": "DnaJ homolog subfamily B member 1 D53N, P25685", "abundance fitness": "0.035 ± 0.12"},
      {"substance": "DnaJ homolog subfamily B member 1 D53P, P25685", "abundance fitness": "-0.709 ± 0.079"},
      {"substance": "DnaJ homolog subfamily B member 1 D53Q, P25685", "abundance fitness": "-0.279 ± 0.097"},
      {"substance": "DnaJ homolog subfamily B member 1 D53R, P25685", "abundance fitness": "-0.132 ± 0.14"},
      {"substance": "DnaJ homolog subfamily B member 1 D53T, P25685", "abundance fitness": "0.032 ± 0.086"},
      {"substance": "DnaJ homolog subfamily B member 1 D53V, P25685", "abundance fitness": "-0.013 ± 0.093"},
      {"substance": "DnaJ homolog subfamily B member 1 D53W, P25685", "abundance fitness": "-0.405 ± 0.12"},
      {"substance": "DnaJ homolog subfamily B member 1 D53Y, P25685", "abundance fitness": "-0.356 ± 0.077"},
      {"substance": "DnaJ homolog subfamily B member 1 D57A, P25685", "abundance fitness": "-0.269 ± 0.088"},
      {"substance": "DnaJ homolog subfamily B member 1 D57C, P25685", "abundance fitness": "-0.09 ± 0.098"},
      {"substance": "DnaJ homolog subfamily B member 1 D57E, P25685", "abundance fitness": "-0.269 ± 0.14"},
      {"substance": "DnaJ homolog subfamily B member 1 D57F, P25685", "abundance fitness": "-0.668 ± 0.17"},
      {"substance": "DnaJ homolog subfamily B member 1 D57G, P25685", "abundance fitness": "-0.298 ± 0.11"},
      {"substance": "DnaJ homolog subfamily B member 1 D57I, P25685", "abundance fitness": "-0.637 ± 0.22"},
      {"substance": "DnaJ homolog subfamily B member 1 D57K, P25685", "abundance fitness": "-0.123 ± 0.13"},
      {"substance": "DnaJ homolog subfamily B member 1 D57L, P25685", "abundance fitness": "-0.53 ± 0.061"},
      {"substance": "DnaJ homolog subfamily B member 1 D57M, P25685", "abundance fitness": "-0.366 ± 0.084"},
      {"substance": "DnaJ homolog subfamily B member 1 D57N, P25685", "abundance fitness": "-0.071 ± 0.29"},
      {"substance": "DnaJ homolog subfamily B member 1 D57P, P25685", "abundance fitness": "-0.715 ± 0.19"},
      {"substance": "DnaJ homolog subfamily B member 1 D57R, P25685", "abundance fitness": "-0.416 ± 0.072"},
      {"substance": "DnaJ homolog subfamily B member 1 D57S, P25685", "abundance fitness": "-0.097 ± 0.076"},
      {"substance": "DnaJ homolog subfamily B member 1 D57T, P25685", "abundance fitness": "-0.072 ± 0.089"},
      {"substance": "DnaJ homolog subfamily B member 1 D57V, P25685", "abundance fitness": "-0.317 ± 0.098"},
      {"substance": "DnaJ homolog subfamily B member 1 D57W, P25685", "abundance fitness": "-0.812 ± 0.2"},
      {"substance": "DnaJ homolog subfamily B member 1 D57Y, P25685", "abundance fitness": "-0.45 ± 0.11"},
      {"substance": "DnaJ homolog subfamily B member 1 D65A, P25685", "abundance fitness": "-0.123 ± 0.078"}
    ]}
  ]
}
